Results from paper PMC6733935, “A convenient and efficient total solid-phase synthesis of DOTA-functionalized tumor-targeting peptides for PET imaging of cancer” (EJNMMI Research, 2019).
Numbered stars: 1 amine (or outer) side, 2 acyl side, 3 side chain; on linkers, the order of the positions; unused ones are H or OH. Square brackets hold non-standard residues; d marks the D form. Peptide text beside a SMILES is read from it. * marks the point of attachment. DOTA = O=C(O)CN1CCN(CC(=O)O)CCN(CC(=O)*)CCN(CC(=O)O)CC1; Cha = N[C@@H](CC1CCCCC1)C(=O)O; X1 = O=C(CCC(=O)[*:2])CN[*:1]; 4Abz = Nc1ccc(C(=O)O)cc1; Nle = CCCC[C@H](N)C(=O)O

Experiments:
[1] = Radio-HPLC retention time as reflection of lipophilicity; format: physicochemical; conditions: chromatographic, econosphere C18 (10 μm, 250 × 4.6 mm), 0.1% TFA water/acetonitrile, 5 to 95% B over 30 min, 1.1 mL/min; radio detection; used as reflection of lipophilicity
Method: The HPLC analysis and purification of the peptides were performed on a Shimadzu HPLC system using econosphere C18 reversed-phase column (10 μm, 250 × 4.6 mm). For all HPLC experiments, a gradient system of 0.1% (v/v) TFA in water (solvent A) and 0.1% (v/v) TFA in acetonitrile (solvent B) at a flow rate of 1.1 mL/min was used. The HPLC gradient began with a solvent composition of 95% A and 5% B from 0 to 2.5 min followed by a linear gradient of 95% A and 5% B to 5% A and 95% B over 30 min. The gradient remained at this position for 3 min before switching back to 95% A and 5% B for another 7 min. The major peak isolated and the acetonitrile was then slowly evaporated under a stream of nitrogen gas. Radiochemical purity was estimated by evaluating radioactivity peaks eluted for each ^68Ga-labeled peptide from the HPLC column and calculating the area under the peak (ROI). The main peak of each radiopeptide was isolated and reconstituted in sterile saline for in vitro and in vivo experiments. Radiolabeling of DOTA-coupled BN peptides with ^68Ga was accomplished simply by mixing ~ 20 μg BN peptide with sodium acetate buffer and ^68GaCl3 followed by heating to complete the labeling reaction. By this facile method, a high and reproducible radiolabeling of peptides with ^68Ga was achieved (up to 95%), with a specific radioactivity of greater than 250 Ci/mmol. […] A radiolabeling efficiency of greater than 90% was obtained in all cases, and it ranged between 90 and 95%. […] RP-HPLC retention times of the major peaks, ranging from 18.3 to 20.3 min, reflected slightly variable lipophilicity of these ^68Ga-complexes (Table 1).

[2] = in vivo; set-up: species or system Balb/c mice; conditions: Balb/c, mouse, iv
Method: Approval for the animal protocol used in this study was obtained from the Institutional Animal Care and Use Committee. Animal studies were conducted according to the international regulations governing the safe and proper use of laboratory animals. In vivo biodistribution were performed on healthy Balb/c mice (n = 3–5 in each group, body weight 19–22 g) at 1 and 2 h after intravenous injection of the HPLC-purified radiopeptide (100 μL, 15–20 μCi, total peptide dose ~ 20 ng) via the lateral tail vein. The mice were sacrificed by cervical dislocation at specified time points and blood samples were withdrawn with a syringe from the heart. Major organs such as lungs, stomach, spleen, pancreas, intestines, liver, kidneys, etc. were isolated, weighed, and radioactivity in each organs and tissues were measured using a γ-scintillation counter. Uptake of radioactivity in the tissues and organs was expressed as the percent injected dose per gram (% ID/g) of tissue/organ, which was calculated by comparison with standard solutions representing 10% of the injected dose per animal. For the clearance studies, radioactivity in the urine with bladder and feces is expressed as the percent of the injected dose per tissue (% ID). Values are expressed as mean ± SD for a group of 3-5 animals at each time point.

[3] = system: MDA-MB-231 tumors; test: in vivo; format: in vivo, nude mice; conditions: for Radioactivity in Urine + bladder / Uptake in Blood / Uptake in Intestines (measured without their contents) / Uptake in Kidneys / Uptake in Liver / Uptake in Lungs / Uptake in Muscle / Uptake in Pancreas / Uptake in Spleen / Uptake in Stomach: female, nude, mouse, in vivo; for Uptake in Tumor: nude mice with MDA-MB-231 tumors, mean ± SD, n = 3-5
Method: BN/GRP receptor-positive MDA-MB-231 and PC3 cell lines (American Type Culture Collection, Rockville, USA) were grown as monolayers at 37 °C in a humidified atmosphere containing RPMI-1640 culture media with 10% fetal bovine serum (FBS) in tissue culture flasks. Twenty-four hours prior to conducting the tumor implantation, the media was replaced with RPMI-1640/10% FBS. The cells were grown to 80-90% confluency and harvested by trypsinization. After centrifugation, about 50 million cells were suspended in 1 mL media for implantation into mice. To prepare cells for inoculation, MDA-MB-231 or PC3 cancer cells with media were centrifuged, the media decanted, and the cell pellet was mixed with phosphate-buffered saline (PBS) to reach a concentration of approximately 5 million cells per 100 μL PBS. Human MDA-MB-231 breast cancer xenografts female mouse models were used for in vivo tumor-targeting experiments. For the implantation of tumor xenografts, approximately five million MDA-MB-231 cells in suspension of 100 μL sterile PBS were injected subcutaneously into the left thigh of each mouse. Tumors were allowed to grow for 4-6 weeks by which tumors had reached weights of 200-300 mg. After sufficient growth of tumors, animals were injected with 20-30 μCi of the radiotracers and the animals were sacrificed at specified time points. The uptake of ^68Ga-radiolabeled peptides in the tumors and other major body organs was calculated by γ-counting as described above.

[4] = total radioactivity, %ID excreted in Feces
[5] = total radioactivity, Uptake in Bone
[6] = total radioactivity, Uptake in Intestines (measured without their contents)
[7] = total radioactivity, Uptake in Kidneys
[8] = total radioactivity, Uptake in Pancreas
[9] = total radioactivity, Uptake in Spleen
[10] = total radioactivity, Uptake in Stomach

CCCC[C@H](NC(=O)[C@H](Cc1c[nH]cn1)NC(=O)[C@H](CC1CCCCC1)NC(=O)[C@@H](NC(=O)[C@H](C)NC(=O)[C@H](Cc1c[nH]c2ccccc12)NC(=O)[C@H](CCC(N)=O)NC(=O)[C@H](CS)NC(=O)CNC(=O)CNC(=O)CCC(=O)CNC(=O)CN1CCN(CC(=O)O)CCN(CC(=O)O)CCN(CC(=O)O)CC1)C(C)C)C(=O)N[C@@H](CCSC)C(N)=O [^68Ga-DOTA-ALA-BN Tris-, metal not drawn] ({DOTA}-[X1]GGCQWAV[Cha]H[Nle]M-NH2)
Radio-HPLC tR [1]: 20.3 min
%ID excreted in Feces ([2]; 1 h): 1.03 ± 0.12 %ID
%ID excreted in Urine ([2]; 1 h): 71.0 ± 12.45 %ID
Uptake in Blood ([2]; 1 h): 0.88 ± 0.14 %ID/g
Uptake in Bone ([2]; 1 h): 0.14 ± 0.03 %ID/g
Uptake in Intestines (measured without their contents) ([2]; 1 h): 0.85 ± 0.13 %ID/g
Uptake in Kidneys ([2]; 1 h): 3.83 ± 0.67 %ID/g
Uptake in Liver ([2]; 1 h): 1.78 ± 0.26 %ID/g
Uptake in Lungs ([2]; 1 h): 0.42 ± 0.10 %ID/g
Uptake in Pancreas ([2]; 1 h): 0.98 ± 0.13 %ID/g
Uptake in Spleen ([2]; 1 h): 0.14 ± 0.03 %ID/g
Uptake in Stomach ([2]; 1 h): 1.44 ± 0.26 %ID/g
%ID excreted in Feces ([2]; 2 h): 0.77 ± 0.10 %ID
%ID excreted in Urine ([2]; 2 h): 78.0 ± 15.0 %ID
Uptake in Blood ([2]; 2 h): 0.27 ± 0.02 %ID/g
Uptake in Bone ([2]; 2 h): 0.08 ± 0.01 %ID/g
Uptake in Intestines (measured without their contents) ([2]; 2 h): 0.64 ± 0.14 %ID/g
Uptake in Kidneys ([2]; 2 h): 2.76 ± 0.49 %ID/g
Uptake in Liver ([2]; 2 h): 0.86 ± 0.17 %ID/g
Uptake in Lungs ([2]; 2 h): 0.19 ± 0.03 %ID/g
Uptake in Pancreas ([2]; 2 h): 0.82 ± 0.12 %ID/g
Uptake in Spleen ([2]; 2 h): 0.10 ± 0.02 %ID/g
Uptake in Stomach ([2]; 2 h): 0.53 ± 0.09 %ID/g
Radioactivity in Urine + bladder ([3]; 1 h): 54.0 ± 5.78 % injected dose per tissue
Uptake in Blood ([3]; 1 h): 0.85 ± 0.15 % ID/g
Uptake in Intestines (measured without their contents) ([3]; 1 h): 1.05 ± 0.18 % ID/g
Uptake in Kidneys ([3]; 1 h): 5.12 ± 0.69 % ID/g
Uptake in Liver ([3]; 1 h): 2.31 ± 0.38 % ID/g
Uptake in Lungs ([3]; 1 h): 2.35 ± 0.33 % ID/g
Uptake in Muscle ([3]; 1 h): 0.39 ± 0.03 % ID/g
Uptake in Pancreas ([3]; 1 h): 1.19 ± 0.15 % ID/g
Uptake in Spleen ([3]; 1 h): 0.44 ± 0.06 % ID/g
Uptake in Stomach ([3]; 1 h): 0.83 ± 0.21 % ID/g
Radioactivity in Urine + bladder ([3]; 2 h): 61.0 ± 7.10 % injected dose per tissue
Uptake in Blood ([3]; 2 h): 0.30 ± 0.04 % ID/g
Uptake in Intestines (measured without their contents) ([3]; 2 h): 0.73 ± 0.13 % ID/g
Uptake in Kidneys ([3]; 2 h): 3.56 ± 0.50 % ID/g
Uptake in Liver ([3]; 2 h): 1.50 ± 0.27 % ID/g
Uptake in Lungs ([3]; 2 h): 0.70 ± 0.16 % ID/g
Uptake in Muscle ([3]; 2 h): 0.23 ± 0.02 % ID/g
Uptake in Pancreas ([3]; 2 h): 0.71 ± 0.10 % ID/g
Uptake in Spleen ([3]; 2 h): 0.35 ± 0.03 % ID/g
Uptake in Stomach ([3]; 2 h): 0.37 ± 0.07 % ID/g
Uptake in Tumor ([3]; 1 h p.i.): 1.78 ± 0.40 % ID/g
Uptake in Tumor ([3]; 2 h p.i.): 1.25 ± 0.21 % ID/g

CCCC[C@H](NC(=O)[C@H](Cc1c[nH]cn1)NC(=O)[C@H](CC1CCCCC1)NC(=O)[C@@H](NC(=O)[C@H](C)NC(=O)[C@H](Cc1c[nH]c2ccccc12)NC(=O)[C@H](CCC(N)=O)NC(=O)[C@H](CS)NC(=O)CNC(=O)CNC(=O)c1ccc(NC(=O)CN2CCN(CC(=O)O)CCN(CC(=O)O)CCN(CC(=O)O)CC2)cc1)C(C)C)C(=O)N[C@@H](CCSC)C(N)=O [^68Ga-DOTA-Abz-BN Cyclen, metal not drawn] ({DOTA-4Abz}-GGCQWAV[Cha]H[Nle]M-NH2)
Radio-HPLC tR [1]: 19.2 min
%ID excreted in Urine ([2]; 1 h): 70.0 ± 8.60 %ID
Uptake in Liver ([2]; 1 h): 0.68 ± 0.16 %ID/g
Uptake in Lungs ([2]; 1 h): 0.21 ± 0.05 %ID/g
dose excreted at 1 h [2, 4]: 1.01 ± 0.2%
dose excreted at 2 h [2, 4]: 0.88 ± 0.12%
dose excreted at 2 h ([2]; total radioactivity, %ID excreted in Urine): 62 ± 9.54%
tissue uptake at 1 h ([2]; total radioactivity, Uptake in Blood): 0.4 ± 0.11 %ID/g
tissue uptake at 1 h [2, 5]: 0.13 ± 0.04 %ID/g
tissue uptake at 2 h [2, 5]: 0.09 ± 0.01 %ID/g
tissue uptake at 1 h [2, 6]: 0.85 ± 0.17 %ID/g
tissue uptake at 2 h [2, 6]: 0.53 ± 0.14 %ID/g
tissue uptake at 1 h [2, 7]: 2.96 ± 0.3 %ID/g
tissue uptake at 2 h [2, 7]: 1.88 ± 0.25 %ID/g
tissue uptake at 2 h ([2]; total radioactivity, Uptake in Liver): 0.5 ± 0.07 %ID/g
tissue uptake at 1 h [2, 8]: 1.07 ± 0.13 %ID/g
tissue uptake at 2 h [2, 8]: 0.88 ± 0.11 %ID/g
tissue uptake at 1 h [2, 9]: 0.12 ± 0.02 %ID/g
tissue uptake at 2 h [2, 9]: 0.07 ± 0.01 %ID/g
tissue uptake at 1 h [2, 10]: 1.69 ± 0.24 %ID/g
tissue uptake at 2 h [2, 10]: 0.45 ± 0.1 %ID/g
Uptake in Tumor ([3]; 1 h p.i.): 1.84 ± 0.40 % ID/g
Uptake in Tumor ([3]; 2 h p.i.): 1.30 ± 0.37 % ID/g
